Source: PMC3410853 (PLoS Pathogens, 2012)

B1: engineered soluble pAPN (ectodomain, residues 36 to 963) (domain or fragment)
chain: EKNKNAEHVPQAPTSPTITTTAAITLDQSKPWNRYRLPTTLLPDSYNVTLRPYLTPNADGLYIFKGKSIVRLLCQEPTDVIIIHSKKLNYTTQGHMVVLRGVGDSQVPEIDRTELVELTEYLVVHLKGSLQPGHMYEMESEFQGELADDLAGFYRSEYMEGNVKKVLATTQMQSTDARKSFPCFDEPAMKATFNITLIHPNNLTALSNMPPKGSSTPLAEDPNWSVTEFETTPVMSTYLLAYIVSEFQSVNETAQNGVLIRIWARPNAIAEGHGMYALNVTGPILNFFANHYNTSYPLPKSDQIALPDFNAGAMENWGLVTYRENALLFDPQSSSISNKERVVTVIAHELAHQWFGNLVTLAWWNDLWLNEGFASYVEYLGADHAEPTWNLKDLIVPGDVYRVMAVDALASSHPLTTPAEEVNTPAQISEMFDSISYSKGASVIRMLSNFLTEDLFKEGLASYLHAFAYQNTTYLDLWEHLQKAVDAQTSIRLPDTVRAIMDRWTLQMGFPVITVDTKTGNISQKHFLLDSESNVTRSSAFDYLWIVPISSIKNGVMQDHYWLRDVSQAQNDLFKTASDDWVLLNVNVTGYFQVNYDEDNWRMIQHQLQTNLSVIPVINRAQVIYDSFNLATAHMVPVTLALDNTLFLNGEKEYMPWQAALSSLSYFSLMFDRSEVYGPMKKYLRKQVEPLFQHFETLTKNWTERPENLMDQYSEINAISTACSNGLPQCENLAKTLFDQWMSDPENNPIHPNLRSTIYCNAIAQGGQDQWDFAWGQLQQAQLVNEADKLRSALACSNEVWLLNRYLGYTLNPDLIRKQDATSTINSIASNVIGQPLAWDFVQSNWKKLFQDYGGGSFSFSNLIQGVTRRFSSEFELQQLEQFKKNNMDVGFGSGTRALEQALEKTKANIKWVKENKEVVLNWFIEHS
B2: TGEV-neutralizing monoclonal antibody 1AF10 (site A, subsite Ac) (antibody, V domains shown)
VH: QVQLQQSGPELVKPGASVKISCKASGYAFSSSWMNWVKQRPGQGLEWIGRIYPGDGETNYSEKFKGKATLTADKSSSTAYMHLSSLTSVDSAVYFCARGGYRYDPYYAMDYWGQGTSVTVSS
VL: DILLTQSPAILSVSPGERVSLSCRASQSIGTSIHWYQQRTNGSPRPLIKYASESISGIPSRFSGSGSGTDFTLNINSVESEDIADYFCQQTDSWPTTFGAGTKLELK
notes: also called 1AF10 mAb; mAb 1AF10; source: hybridoma cells; purified mAb or hybridoma supernatant; copies: 2 + 2

Assays:
[1] = target: porcine aminopeptidase N (pAPN) on the surface of BHK-pAPN cells (UniProt P15145); assay: flow cytometry on cells (FACS, percentage of stained cells); details: same concentration of wild type and mutant SA-Fc proteins, parent: est. 100, read off a plot
[2] = target: SA-Fc fusion protein (bivalent SA-Fc variant; TGEV S residues 481 to 650); assay: as above; details: transiently transfected 293T cells expressing similar amounts of HA-tagged pAPN proteins; parent: est. 100; read off a plot
[3] = target: the molecule itself; assay: SEC; soluble pAPN ectodomain on Superdex 200 16/60, HEPES-saline buffer pH 7.5
[4] = target: T1, SA-Fc fusion protein (bivalent SA-Fc variant; TGEV S residues 481 to 650) (Transmissible gastroenteritis virus …, strain); assay: ELISA
T1 construct: not shown: HA, N-terminal, kept; Fc (human IgG1), C-terminal, kept
T1 chain: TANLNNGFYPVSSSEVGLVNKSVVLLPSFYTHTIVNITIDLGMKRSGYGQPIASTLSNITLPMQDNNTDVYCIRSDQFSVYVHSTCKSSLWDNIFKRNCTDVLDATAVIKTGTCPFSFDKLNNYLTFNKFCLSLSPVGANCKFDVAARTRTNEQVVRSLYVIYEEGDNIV

Row | Molecule | percent of parent [1] [%] | percent of parent [2] [%] | also measured
1 | SA-Fc fusion protein (bivalent SA-Fc variant; TGEV S residues 481 to 650) N632A | 15 |  | 
2 | SA-Fc fusion protein (bivalent SA-Fc variant; TGEV S residues 481 to 650) V617Ngly | 105 |  | 
3 | recombinant membrane bound pAPN with an HA tag at the C-terminal end (from UniProt P15145) N736A |  | 3 | 
4 | recombinant membrane bound pAPN with an HA tag at the C-terminal end (from UniProt P15145) T738V |  | 3 | 
5 | B1 |  |  | stoichiometry N [3]: 2
6 | B2 |  |  | binding result [4]: binds
